Measurements taken from PMC3355152, “Crystal Structures of Lsm3, Lsm4 and Lsm5/6/7 from Schizosaccharomyces pombe”.

T1: ScLsm3 (Saccharomyces cerevisiae, UniProt P57743 1-89)
T1 sequence: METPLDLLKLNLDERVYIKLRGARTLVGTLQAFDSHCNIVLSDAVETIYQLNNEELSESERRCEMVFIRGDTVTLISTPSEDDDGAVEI

B1: U15 (FAM) (ssRNA)
RNA: UUUUUUUUUUUUUUU
B2: U15 (biotin) (ssRNA)
RNA: UUUUUUUUUUUUUUU

Assays:
[1] = molecular target: SpLsm2 (of SpLsm2/3);SpLsm3 (of SpLsm2/3) (Schizosaccharomyces …, UniProt O94408;Q9Y7M4 1-96;1-93, |); test: fluorescence anisotropy; FA: 20 mM Hepes pH 7.5, 100 mM NaCl, 25 C, 0.1 uM RNA; SPR (Biacore 3000): 20 mM Hepes pH 7.5, 100 mM NaCl, 25 C, 1 uM protein; settings: protein: recombinant;recombinant; tags: N-terminal His6;none; label: 5' 6-FAM; single strand
SpLsm5;SpLsm6;SpLsm7 = SpLsm5;SpLsm6;SpLsm7 (Schizosaccharomyces …, UniProt O42978;Q9UUI1;O74499 1-80;1-75;1-113, ||); test: as above; settings: protein: recombinant;recombinant;recombinant; tags: N-terminal His6;none;; chain copies: 2;2;2; label: 5' 6-FAM; single strand
ScLsm3 = molecular target: T1, ScLsm3; test: SPR; 1 uM protein; FA: 20 mM Hepes pH 7.5, 100 mM NaCl, 25 C, 0.1 uM RNA; SPR (Biacore 3000): 20 mM Hepes pH 7.5, 100 mM NaCl, 25 C, 1 uM protein; settings: protein: recombinant; tags: His6 removed by PreScission; chain copies: 8; label: 5' biotin; single strand

SpLsm5;SpLsm6;SpLsm7, sequence (O42978 whole entry, chain 1 of 3): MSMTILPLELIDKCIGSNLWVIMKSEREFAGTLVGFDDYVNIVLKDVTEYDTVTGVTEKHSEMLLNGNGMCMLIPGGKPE
SpLsm5;SpLsm6;SpLsm7, sequence (Q9UUI1 whole entry, chain 2 of 3): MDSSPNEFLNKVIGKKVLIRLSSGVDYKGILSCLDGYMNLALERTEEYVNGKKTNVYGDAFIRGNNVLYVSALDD
SpLsm5;SpLsm6;SpLsm7, sequence (O74499 whole entry, chain 3 of 3): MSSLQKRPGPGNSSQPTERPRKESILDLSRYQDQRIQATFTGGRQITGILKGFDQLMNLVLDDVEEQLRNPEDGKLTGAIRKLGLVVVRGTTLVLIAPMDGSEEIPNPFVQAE
SpLsm2 (of SpLsm2/3);SpLsm3 (of SpLsm2/3), sequence (O94408 whole entry, chain 1 of 2): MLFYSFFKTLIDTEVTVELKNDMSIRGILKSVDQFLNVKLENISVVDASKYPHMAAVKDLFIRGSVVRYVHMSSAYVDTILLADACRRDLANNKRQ
SpLsm2 (of SpLsm2/3);SpLsm3 (of SpLsm2/3), sequence (Q9Y7M4 whole entry, chain 2 of 2): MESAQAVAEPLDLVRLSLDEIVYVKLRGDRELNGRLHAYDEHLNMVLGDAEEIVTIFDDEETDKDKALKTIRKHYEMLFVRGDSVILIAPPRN

| Binder | Kd [1] | Kd (SpLsm5;SpLsm6;SpLsm7) | binding result (ScLsm3) |
| --- | --- | --- | --- |
| B1 | 4 ± 0.5 µM | 52.5 ± 10 µM |  |
| B2 |  |  | no binding |
